Assay results reported in US20240352121A1, “LAIR-1 AGONISTIC ANTIBODIES AND METHODS OF USE THEREOF” (NEXTCURE, INC., priority 2023, published 2024).

Key:
AML patient cells = assay: Ex vivo depleting assay, AML patient blood leukocytes; format: cell-based, human
Protocol: Whole blood from AML-diagnosed donors was RBC-depleted using StemCell RBC depletion kit following the manufacturer's instructions. Leukocytes were re-suspended in complete RPMI media containing 3 μg/mL of soluble mAb, then plated in 96-well round-bottom plates for 48 hours at 37° C. Cell death was analyzed by AnnexinV and Fixable Live-Dead staining following the manufacturer's instructions, quantified by flow cytometry. RBC depletion StemCell Ref #18170. Isotype=FC-G1 BioXcell Ref #BE0096. Live-Dead Stain Invitrogen Cat #L34966. AnnexinV-AF647 Biolegend Cat #640943.
Fresh whole blood was RBC-depleted using the EasySep™ RBC Depletion Reagent (StemCell, Vancouver, BC) following the manufacturer's protocol. Alternatively, frozen PBMCs were thawed in pre-warmed cRPMI media. Cell number was determined by VI-Cell XR cell counter. 2e5 cells per well were plated into 96-well plates lacking or containing 50 μg/mL pre-coated human Collagen I (StemCell, Vancouver, BC) in 200 μL of cRPMI containing 10 μg/mL of soluble LAIR-1 mAb or isotype control antibody (NP782 (NextCure, Beltsville, MD) or InVivoMAb recombinant human IgG1 Fc (BioXcell, Lebanon, NH)). Plates were centrifuged at 100×g for 2 minutes, then incubated for 20 hours at 37° C. in a TC incubator. At the end of incubation period, plates were centrifuged at 500×g for 4 min. […]

[1] = system: MV4-11-LAIR-1 Overexpressing cells; assay: In vitro culture of MV4-11-LAIR-1 overexpressing cells with or without anti-IgG crosslinking; format: cell-based, human
Protocol: FIGS. 4A-4O show the collagen matrix is vital to LAIR-1 induced AML cell death. (FIGS. 4A-C). Flow cytometry quantification of primary live, dead, or apoptotic total blood leukocytes after ex vivo treatment with 10 μg/mL IgG isotype control (gray) or LAIR-1 mAb (red) in the presence (FIG. 4A) or absence (FIG. 4B) of exogenous collagen, or (FIG. 4C), CD451^Lo SSC^Lo blast cells in the presence of isotype control or LAIR-1 mAb. N=3 technical replicates. […] Each dot represents an individual donor. Red shading highlights surface expression >20000 arbitrary units. Blue shading highlights expression <20000 units. Line represents simple linear regression. […] N=4-7 donors. […] Mean pixel density from Western blotting normalized to isotype control condition and graphed relative to total SHP-1. N=3 technical replicates. FIGS. 4G and 4H show mean pixel density from phospho-array of AML patient PBMCs treated ex vivo with 10 μg/mL of IgG isotype control (gray), 50 μg/mL coated collagen (white), or 10 μg/mL LAIR-1 mAb+coated collagen (red) for G, MAPK activity or (FIG. 4H), mTOR and NF-kB activity. N=2 technical replicates. […] FIGS. 4M and 4N) 4E-BP1 expression as measured by Lumit assay (FIG. 4M) or cleaved caspase-7 as measured by Western blot (FIG. 4N) of cells treated as shown in FIGS. 4I-4K. Mean pixel density normalized to histone-3 for triplicate samples. […] Values normalized to isotype for each respective condition. n=3-4 technical replicates. P values calculated by Student's t test. Error bars represent SEM.

SoC-resistant AML = assay: PDX model with BM from a VEN/AZA-resistant patient; design: species or system NSG-SGM3 mice; details: mouse, in vivo
Protocol: Ex vivo killing of VEN/AZA-treated AML patient leukemic cells (FIG. 7A) or T cells or NK cells (FIG. 7B). Values normalized to vehicle control. Lines represent linear regression of NC525 concentration versus normalized cell killing. […] FIGS. 7D and 7E show in vivo leukemic growth as measured by whole-body luminescence of MV4-11-luciferase cells (FIG. 7D) or survival (FIG. 7E) of CDX mice treated with 10 mg/kg isotype control (gray) or NC525 (red) or 100 mg/kg VEN (pink) or 0.5 mg/kg AZA (blue) or combination therapy (green or yellow, respectively). BLoD, below limit of detection. n=9 mice per group. P values determined by 2-way ANOVA or log-rank (Mantel-Cox) test, respectively. FIGS. 7F and 7G show leukemic growth in the blood (FIG. 7F) and in the spleen and BM (FIG. 7G) at week 8 after transplant of AML PDX mice treated with vehicle (gray), VEN/AZA (blue), NC525 (red), or VEN/AZA plus NC525 (green). n=5-10 mice per group. AML cells in spleen and BM compared from 4-5 mice per group. Data are shown as the mean±SEM. P values determined by 2-way ANOVA or 1-way ANOVA with multiple comparisons.
Newborn (3-5 day from birth) NSG-SGM3 pups were sub-lethally (200 cGy) irradiated. […] Leukemia progression in recipient mice was measured by flow cytometry by quantifying the percent of human CD33^+ human CD45^+ cells in peripheral blood at weeks 4, 6, and 10 weeks post-transplant.

B1: LAIR-1 mAb: humanized agonist anti-LAIR-1 mAb, IgG1 backbone; h11B3 VL-2 (SEQ ID NO: 16), h11B3 VH-3 (SEQ ID NO: 27) (antibody, V domains shown)
VH: EVQLVESGGGLVQPGGSLKLSCAASGFTFNTNAMYWVRQAPGKGLEWVGRIRSKSSNYATYYAASVKGRFTISRDDSKNTLYLQMNSLKTEDTAVYYCVRGGSGFFAYWGQGTLVTVSS
VL: DIQMTQSPSSLSASLGDRVTITCKASEDIYIRLAWYQQKPGKAPRLLISTATSLETGVPSRFSGSGSGTDYTFTISSLQPEDIATYYCQQYWSTPYTFGGGTRLEIK
modifications: IgG1 constant regions; Synthetic: h11B3 VH-3; Synthetic: h11B3 VL-2
For B1, the AML cell death (AML patient cells; 3 μg/mL soluble mAb, 48 hours) was “induces AML cell death”, the “cell death of total AML patient cells or CD45Low SSCLow blasts” value (AML patient cells; 10 μg/mL, plate-coated collagen) was “significant cell death” and the “growth of LAIR-1 Overexpressing cells” value ([1]; LAIR-1 mAb alone, vs isotype control) was “only moderately suppressed”. The proliferation of cells ([1]; anti-IgG crosslinking conditions, after 3 days of culture) was “completely inhibited”, the “4E-BP1 (mTORC1 target protein)” value ([1]; crosslinking conditions) was “significant suppression” and the “activated caspase-7” value ([1]; crosslinking conditions) was “substantial increase”. The “AML disease (circulating blast cell burden, AML cells in spleen and BM)” value (SoC-resistant AML) was “significantly reduced”.
